Source: IntAct's records for PubMed 36753016

Biological target: ubp18_human USP18 (UniProt Q9UMW8)
Sequence (Q9UMW8 whole entry): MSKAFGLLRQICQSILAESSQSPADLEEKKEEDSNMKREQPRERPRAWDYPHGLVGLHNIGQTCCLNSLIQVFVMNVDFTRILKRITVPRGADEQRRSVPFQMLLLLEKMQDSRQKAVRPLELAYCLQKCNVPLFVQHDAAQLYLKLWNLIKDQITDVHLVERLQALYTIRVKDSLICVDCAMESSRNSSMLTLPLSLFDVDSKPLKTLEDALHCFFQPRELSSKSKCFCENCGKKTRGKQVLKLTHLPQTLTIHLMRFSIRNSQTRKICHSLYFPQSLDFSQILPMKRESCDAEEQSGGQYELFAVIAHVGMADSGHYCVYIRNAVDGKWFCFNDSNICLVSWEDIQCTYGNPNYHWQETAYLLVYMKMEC

- effect of a mutation on the interaction: decreasing interaction strength
Substance: Signal transducer and activator of transcription 2 (Homo sapiens), P52630 A219V
